Experimental data published in patent US20250223366A1 (BIOTHEUS, published 2025).
Blank lines part the entries; values can stand above or below the binder they belong to.

Tests used:
[1] = biological target: T1, EGFR expressed on H292 cells (human, UniProt P00533 25-1210); experiment: flow cytometry on H292 cells, blocking of biotin-h.EGF (100 nM) binding to EGFR; EGFRxMET-136; blocking of EGF on H292 cells
T1 construct: whole, on cells; H292 cells also express c-Met; also called epidermal growth factor receptor
Protocol: (§1) H292 cells, which were human non-small cell lung cancer cells purchased from Procell, were capable of expressing EGFR and c-Met receptors. H292 cells were expanded to a suitable density, digested and detached from the cell culture flask, resuspended to 1×10⁶ cells/ml, added to a 96-well flow plate, 100 μL per well, and centrifuged for later use. The antibody to be tested was subjected to 3-fold dilution with PBS, starting from 200 nM, and the diluted sample was added to the 96-well flow plate with cells, 100 μL/well, and incubated at 25° C. for 60 min. […] Streptavidin-FITC (purchased from Jackson) was diluted 100 times with PBS and added to the plate, 100 µL/well, incubated at 4° C. for 30 min, and washed twice with PBS. 100 μL/well of PBS was added to resuspend the cells, then the cells were detected on a CytoFlex (Beckman) flow cytometer, and the corresponding MFI was calculated.

[2] = biological target: T1, EGFR expressed on H292 cells; experiment: flow cytometry on H292 cells, blocking of biotin-h.EGF (100 nM) binding to EGFR; EGFRxMET-187; blocking of EGF on H292 cells
Protocol: as §1

[3] = biological target: T2, EGFR and c-Met receptors co-expressed on A375 or H292 cells (human, UniProt P00533 25-1210; P08581 25-1390); experiment: flow cytometry, binding to A375 cells (low EGFR and c-Met expression); A375 cells
T2 construct: whole, on cells; Not a complex; also called EGFR and c-Met positive tumor cells
Source text: (§2) A375 cells were human malignant melanoma cells and purchased from Addexbio, which were capable of low expression of EGFR and c-Met receptors. H292 cells were human lung adenocarcinoma cells and purchased from procell, which were capable of high expression of EGFR and c-Met receptors. HCC827 cells were human non-small cell lung cancer cells and purchased from the Cell Bank of the Chinese Academy of Sciences, which were capable of high expression of EGFR and c-Met receptors. The expanded cells were adjusted to an appropriate cell density, and added to a 96-well flow plate. After centrifugation, the gradiently diluted samples to be tested were added and incubated at 4° C. for 1 hour. The cells were washed twice with PBS, then a fluorescent secondary antibody, diluted to an appropriate concentration, was added, incubated at 4° C. for 30 min, and washed twice with PBS. The cells were resuspended by PBS, and detected on a CytoFlex flow cytometer, and corresponding MFI was calculated.

[4] = biological target: T2, EGFR and c-Met receptors co-expressed …; experiment: flow cytometry, binding to H292 cells (high EGFR and c-Met expression)
Source text: as §2

[5] = biological target: T2, EGFR and c-Met receptors co-expressed …; experiment: flow cytometry, binding to A375 cells (low EGFR and c-Met expression)
Source text: as §2

human c-MET protein = biological target: T3, human c-MET protein (human, UniProt P08581 25-932); experiment: ForteBio (BLI) affinity assay, human c-Met protein
T3 construct: The construct is not described; also called cellular mesenchymal epithelial transition factor (c-Met) antigen
Protocol: (§3) After the antibodies were prepared, the ForteBio affinity assay was performed according to the reported method (Estep, P et al., Determination of antibody-antigen affinity and epitope binding based on high-throughput methods. MAbs, 2013.5(2): p. 270-8).

monkey c-MET protein = biological target: T4, monkey c-MET protein (monkey, UniProt A0A2K5UM36 25-932); experiment: ForteBio (BLI) affinity assay, monkey c-Met protein
T4 construct: The construct is not described
Protocol: as §3

[6] = biological target: T1, EGFR expressed on H292 cells; experiment: flow cytometry on H292 cells; antibody titrated, then 100 nM Biotin-h.EGF as the blocked ligand, detected with Streptavidin-FITC
Protocol: as §1

T4 sequence (A0A2K5UM36 entry or part of it limits assumed): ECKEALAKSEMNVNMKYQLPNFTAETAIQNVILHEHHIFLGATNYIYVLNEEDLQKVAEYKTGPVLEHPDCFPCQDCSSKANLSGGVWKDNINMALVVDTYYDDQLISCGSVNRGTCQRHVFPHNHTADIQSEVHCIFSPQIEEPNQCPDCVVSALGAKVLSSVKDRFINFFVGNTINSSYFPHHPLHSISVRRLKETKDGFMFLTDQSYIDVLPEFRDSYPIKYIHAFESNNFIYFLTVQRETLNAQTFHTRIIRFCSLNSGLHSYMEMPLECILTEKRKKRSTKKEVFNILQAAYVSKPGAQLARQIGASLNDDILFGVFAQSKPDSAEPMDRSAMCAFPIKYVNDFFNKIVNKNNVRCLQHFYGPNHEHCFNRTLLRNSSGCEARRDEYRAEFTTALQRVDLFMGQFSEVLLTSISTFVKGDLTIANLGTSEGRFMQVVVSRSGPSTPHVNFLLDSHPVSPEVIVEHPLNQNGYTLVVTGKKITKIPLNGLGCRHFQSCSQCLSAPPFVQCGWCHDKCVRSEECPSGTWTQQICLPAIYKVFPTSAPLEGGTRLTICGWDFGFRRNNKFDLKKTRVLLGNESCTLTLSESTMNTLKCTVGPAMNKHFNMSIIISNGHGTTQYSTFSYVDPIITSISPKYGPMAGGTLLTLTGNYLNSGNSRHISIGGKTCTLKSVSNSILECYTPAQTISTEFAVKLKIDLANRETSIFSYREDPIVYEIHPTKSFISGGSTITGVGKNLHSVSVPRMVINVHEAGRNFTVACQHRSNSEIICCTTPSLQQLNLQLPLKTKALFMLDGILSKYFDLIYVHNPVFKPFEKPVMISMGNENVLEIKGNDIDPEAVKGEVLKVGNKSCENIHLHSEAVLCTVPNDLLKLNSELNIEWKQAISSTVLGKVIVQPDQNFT
T3 sequence (P08581 25-932 limits assumed): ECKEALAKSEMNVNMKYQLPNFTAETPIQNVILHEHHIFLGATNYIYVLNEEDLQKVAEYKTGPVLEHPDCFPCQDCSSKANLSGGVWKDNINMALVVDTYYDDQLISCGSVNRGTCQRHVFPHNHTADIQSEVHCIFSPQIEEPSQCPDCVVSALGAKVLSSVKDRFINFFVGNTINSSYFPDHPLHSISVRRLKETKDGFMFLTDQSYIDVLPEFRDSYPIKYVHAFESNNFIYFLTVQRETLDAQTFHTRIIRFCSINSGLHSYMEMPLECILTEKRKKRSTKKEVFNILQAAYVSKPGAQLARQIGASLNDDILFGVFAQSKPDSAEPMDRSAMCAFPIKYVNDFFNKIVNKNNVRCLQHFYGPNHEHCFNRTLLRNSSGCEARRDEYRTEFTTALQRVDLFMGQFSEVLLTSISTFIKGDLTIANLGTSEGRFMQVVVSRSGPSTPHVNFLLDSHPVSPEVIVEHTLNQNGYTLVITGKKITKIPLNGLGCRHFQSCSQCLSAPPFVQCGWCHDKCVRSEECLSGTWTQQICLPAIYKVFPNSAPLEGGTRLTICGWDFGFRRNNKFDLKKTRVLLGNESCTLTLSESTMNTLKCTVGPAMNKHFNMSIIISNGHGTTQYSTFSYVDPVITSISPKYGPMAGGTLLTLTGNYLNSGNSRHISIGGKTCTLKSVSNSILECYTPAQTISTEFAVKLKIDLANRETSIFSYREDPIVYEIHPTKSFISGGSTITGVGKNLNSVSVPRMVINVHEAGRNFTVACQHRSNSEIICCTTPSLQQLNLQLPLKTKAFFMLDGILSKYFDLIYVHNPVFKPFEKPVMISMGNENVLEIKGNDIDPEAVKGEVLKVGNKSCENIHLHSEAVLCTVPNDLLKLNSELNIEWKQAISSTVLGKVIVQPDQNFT

B2: EGFRxMET-187 (bispecific antibody, human IgG1, kappa)
heavy 1: not shown
light 1: not shown
heavy 2: not shown
light 2: DIVMTQSPSSVSASVGDRVTITCRASQGISSWLAWYQQKPGKAPNLLIYAASNLPSGVPSRFSGSGSGTVFTLTISSLQPEDFATYYCQQSNSFPLTFGGGTKVEIKRTVAAPSVFIFPPSDEQLKSGTASVVCLLNNFYPREAKVQWKVDNALQSGNSQESVTEQDSKDSTYSLSSTLTLSKADYEKHKVYACEVTHQGLSSPVTKSFNRGEC
notes: 1+1 heterodimeric IgG1-type bispecific
IC50 [2]: 2.9 nM

B5: anti-c-MET antibody 136 (antibody, V domains shown)
VH: EVQLQESGPGLVKPSETLSLTCTVSGGSVTSVNYYWKWIRQPPGKGLEWIGYISYSGNTNYNPSLKSRVTISVDTSKNQFSLKLSSVTAADTAVYYCVRAPYYYMDVWSKGTTVTVSS
VL: DIVMTQSPSSVSASVGDRVTITCRASQGISSWLAWYQQKPGKAPKLLIYAVSSLQSGVPSRFSGSGSGTDFTLTISSLQPEDFATYFCQQANSFPLTFGGGTKVEIK
notes: Candidate from yeast display screening, as tested in the ForteBio assay
Kd (human c-MET protein): 0.0293 nM
koff (human c-MET protein): 6.71e-06 s⁻¹
kon (human c-MET protein): 229000 M⁻¹ s⁻¹
Kd (monkey c-MET protein): 1.16 nM
koff (monkey c-MET protein): 0.000426 s⁻¹
kon (monkey c-MET protein): 369000 M⁻¹ s⁻¹

B6: anti-c-MET antibody 187 (antibody, V domains shown)
VH: ELQLQESGPGLVKPSETLSLTCTVSGGSISSSSYYWGWIRQSPGKGLEWIGSRYYSGNTYYNPSLKSRVTMSVDTSKNQFSLKLRSVTAADTAVYYCARQVYDYWRDWGQGALVTVSS
VL: DIVMTQSPSSVSASVGDRVTITCRASQGISSWLAWYQQKPGKAPNLLIYAASNLPSGVPSRFSGSGSGTVFTLTISSLQPEDFATYYCQQSNSFPLTFGGGTKVEIK
notes: as for B5
Kd (human c-MET protein): 1.68 nM
koff (human c-MET protein): 0.000369 s⁻¹
kon (human c-MET protein): 220000 M⁻¹ s⁻¹
Kd (monkey c-MET protein): 2.92 nM
koff (monkey c-MET protein): 0.000947 s⁻¹
kon (monkey c-MET protein): 324000 M⁻¹ s⁻¹

Next, values leading:

IC50 [1]: 3.15 nM
B1: EGFRxMET-136 (bispecific antibody, human IgG1, kappa)
heavy 1: not shown
light 1: not shown
heavy 2: not shown
light 2: DIVMTQSPSSVSASVGDRVTITCRASQGISSWLAWYQQKPGKAPKLLIYAVSSLQSGVPSRFSGSGSGTDFTLTISSLQPEDFATYFCQQANSFPLTFGGGTKVEIKRTVAAPSVFIFPPSDEQLKSGTASVVCLLNNFYPREAKVQWKVDNALQSGNSQESVTEQDSKDSTYSLSSTLTLSKADYEKHKVYACEVTHQGLSSPVTKSFNRGEC
notes: as for B2

EC50 [3]: 1.35 nM
B3: EGFRxMET-136 Afu (bispecific antibody, human IgG1, kappa)
heavy 1: not shown
light 1: DIVMTQSPSSVSASVGDRVTITCRASQGISSWLAWYQQKPGKAPKLLIYAVSSLQSGVPSRFSGSGSGTDFTLTISSLQPEDFATYFCQQANSFPLTFGGGTKVEIKRTVAAPSVFIFPPSDEQLKSGRASVVCLLNNFYPREAKVQWKVDNALQSGNSQESVTEQDSKDSTYSLSSRLQLSKADYEKHKVYACEVTHQGLSSPVTKSFNRGEC
heavy 2: not shown
light 2: DIQLTQSPSSLSASVGDRVTITCRASQDISSALVWYQQKPGKAPKLLIYDASSLESGVPSRFSGSESGTDFTLTISSLQPEDFATYYCQQFNSYPLTFGGGTKVEIKRTVAAPSVFIFPPSDEELKSGTASVQCLLNNFYPREAKVQWKVDNALQSGNSQESVTEQDSKDSTYSLSSELTLSKADYEKHKVYACEVTHQGLSSPVTKSFNRGEC
modifications: afucosylated glycan

EC50 [4]: 1.46 nM
EC50 [5]: 1.05 nM
B4: EGFRxMET-187 Afu (bispecific antibody, human IgG1, kappa)
heavy 1: not shown
light 1: not shown
heavy 2: not shown
light 2: DIVMTQSPSSVSASVGDRVTITCRASQGISSWLAWYQQKPGKAPNLLIYAASNLPSGVPSRFSGSGSGTVFTLTISSLQPEDFATYYCQQSNSFPLTFGGGTKVEIKRTVAAPSVFIFPPSDEQLKSGTASVVCLLNNFYPREAKVQWKVDNALQSGNSQESVTEQDSKDSTYSLSSTLTLSKADYEKHKVYACEVTHQGLSSPVTKSFNRGEC
modifications: afucosylated glycan

IC50 [6]: 2.64 nM
B7: Amivantamab analog (bispecific antibody, human IgG1, kappa)
anti-EGFR heavy chain (EGFR-1 Fc): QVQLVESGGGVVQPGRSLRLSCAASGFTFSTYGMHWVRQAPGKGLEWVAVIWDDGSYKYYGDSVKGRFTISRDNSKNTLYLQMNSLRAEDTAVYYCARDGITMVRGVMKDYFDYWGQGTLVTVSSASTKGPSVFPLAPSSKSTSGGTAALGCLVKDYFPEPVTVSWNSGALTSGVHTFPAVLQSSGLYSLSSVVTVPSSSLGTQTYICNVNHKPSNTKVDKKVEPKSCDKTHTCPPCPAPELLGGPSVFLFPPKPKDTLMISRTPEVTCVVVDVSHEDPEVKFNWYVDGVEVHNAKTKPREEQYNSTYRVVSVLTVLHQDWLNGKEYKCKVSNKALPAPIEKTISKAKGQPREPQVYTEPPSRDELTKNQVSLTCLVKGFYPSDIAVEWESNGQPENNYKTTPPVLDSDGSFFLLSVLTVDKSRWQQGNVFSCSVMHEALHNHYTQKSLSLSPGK
anti-EGFR light chain: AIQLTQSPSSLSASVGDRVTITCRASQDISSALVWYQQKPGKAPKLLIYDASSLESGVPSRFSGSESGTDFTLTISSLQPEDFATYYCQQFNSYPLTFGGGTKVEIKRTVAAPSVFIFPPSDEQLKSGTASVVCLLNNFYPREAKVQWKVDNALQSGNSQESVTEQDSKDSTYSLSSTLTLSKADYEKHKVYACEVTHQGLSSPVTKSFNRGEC
anti-cMet control heavy chain (cMet-2 Fc): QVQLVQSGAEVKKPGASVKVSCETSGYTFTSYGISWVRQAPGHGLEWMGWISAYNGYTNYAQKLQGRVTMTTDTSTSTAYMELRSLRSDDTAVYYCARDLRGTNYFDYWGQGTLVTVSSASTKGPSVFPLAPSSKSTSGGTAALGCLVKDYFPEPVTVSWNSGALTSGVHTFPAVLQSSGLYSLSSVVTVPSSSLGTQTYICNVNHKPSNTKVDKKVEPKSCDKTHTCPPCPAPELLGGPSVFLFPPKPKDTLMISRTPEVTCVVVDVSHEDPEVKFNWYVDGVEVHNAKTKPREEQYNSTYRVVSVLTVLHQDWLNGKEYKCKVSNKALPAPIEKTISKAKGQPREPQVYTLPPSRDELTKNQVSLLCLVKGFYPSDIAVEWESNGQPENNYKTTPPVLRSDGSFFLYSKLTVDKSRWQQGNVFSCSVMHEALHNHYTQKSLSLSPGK
anti-cMet control light chain: DIQMTQSPSSVSASVGDRVTITCRASQGISNWLAWFQHKPGKAPKLLIYAASSLLSGVPSRFSGSGSGTDFTLTISSLQPEDFATYYCQQANSFPITFGQGTRLEIKRTVAAPSVFIFPPSDEQLKSGTASVVCLLNNFYPREAKVQWKVDNALQSGNSQESVTEQDSKDSTYSLSSTLTLSKADYEKHKVYACEVTHQGLSSPVTKSFNRGEC
notes: also called control antibody; control molecule Amivantamab
